The values below are quoted from earlier work in publication PMC5472405.

Usually Kd stands for the concentration at which binding is half-saturated.

The target of this data set is CXCR4 (Homo sapiens) (UniProt P61073).
CXCR4 (Homo sapiens), sequence (P61073 whole entry): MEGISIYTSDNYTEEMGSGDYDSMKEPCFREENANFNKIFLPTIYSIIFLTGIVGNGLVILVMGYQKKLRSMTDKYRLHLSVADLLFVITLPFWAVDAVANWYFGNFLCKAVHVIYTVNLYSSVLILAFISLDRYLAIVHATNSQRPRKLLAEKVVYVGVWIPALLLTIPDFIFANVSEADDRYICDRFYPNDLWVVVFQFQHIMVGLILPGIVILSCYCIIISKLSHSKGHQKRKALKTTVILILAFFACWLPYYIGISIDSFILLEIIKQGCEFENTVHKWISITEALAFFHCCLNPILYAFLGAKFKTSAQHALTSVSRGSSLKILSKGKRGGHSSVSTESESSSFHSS

CXCL14, sequence (O95715 35-111): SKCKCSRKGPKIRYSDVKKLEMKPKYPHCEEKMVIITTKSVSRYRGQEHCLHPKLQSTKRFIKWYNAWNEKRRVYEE

As to CXCL14 (from UniProt O95715), the Kd was 14.7 nM.
